Where a chain is given by its changes, count along the chain named. Read-outs that look alike come from different tables or passages of the source.

Results on eight molecules are retold here after article PMC8892091.

Series [1] addresses T1, MBP-ALKBH6 WT (Homo sapiens, UniProt Q3KRA9 1-238). The series can be described thus: competition.
Series [2] has as its target ALKBH6ΔFlip3 (Homo sapiens, UniProt Q3KRA9 1-238, del139-158). The series can be described thus: MST.
For series [3], the target named is T2, ALKBH6 WT (Homo sapiens, UniProt Q3KRA9 1-238). Put plainly: MST.
Series [4] deals with T1, MBP-ALKBH6 WT. The series can be described thus: EMSA. Background: A gel shift assay detects complexes by their altered migration in electrophoresis.
The target in series [5] is T2, ALKBH6 WT. Put plainly: MST. This is another data set of the same source.
The target of series [6] is MBP-ALKBH6 R225A/R228A (Homo sapiens, UniProt Q3KRA9 1-238, R225A;R228A). Put plainly: EMSA.
In series [7] the target is MBP-ALKBH6ΔFlip3 (Homo sapiens, UniProt Q3KRA9 1-238, del139-158). Put plainly: EMSA.
Series [8] concerns the target T2, ALKBH6 WT. Put plainly: MST. The source holds these as a separate data set.

Regarding GGATCAACAGTGCACAGTT (ssDNA) [ssDNA1 (unlabelled)], the binding result in series [1] is recorded as “binds”.

As to GATCCAGTGATCCAGT (ssDNA) [ssDNA3 (FAM)], the binding result in series [2] and in series [3] was “binds” throughout.

As for AAAAAAAAAAAAAAAAAAAAAAAAAAAAAA (ssRNA) [poly(A) 30 nt], the binding result in series [4] and in series [5] was “binds” in each case.

Turning to GGATCAACAGTGCACAGTT (ssDNA) [ssDNA1 (FAM)], the binding result in series [4] and in series [6] was “binds” each time.

B1: dsDNA1 (dsDNA)
DNA 1: AACTTCGTGCAGGCATGGGATCTTGTCTACT
DNA 2: AGTAGACAAGATCCCATGCCTGCACGAAGTT
On to B1, for which the results for the binding result in series [4] and in series [7] were “no binding” and “binds”, respectively.

B2: Bubble DNA1 (dsDNA)
DNA 1: B1 DNA 1
DNA 2: B1 DNA 2 with A11C, T12G, C13A
Take B2: in series [8], the binding result is listed as “binds”.

B3: Bulge DNA2 (dsDNA)
DNA 1: B1 DNA 1
DNA 2: AGTAGACAACATGCCTGCACGAAGTT
For B3, the binding result in series [8] is “binds”.

B4: Bulge DNA1 (dsDNA)
DNA 1: B1 DNA 1
DNA 2: AGTAGA
DNA 3: CATGCCTGCACGAAGTT
For B4, the binding result in series [8] is “binds”.
